{
  "source": "IntAct's records for PubMed 17947231",
  "parents": {"B1": {"name": "Calvin cycle protein CP12-2, chloroplastic (Arabidopsis thaliana (Mouse-ear cress)), Q9LZP9 (parent)", "chain": "MATIATGLNIATQRVFVTSENRPVCLAGPVHLNNSWNLGSRTTNRMMKLQPIKAAPEGGISDVVEKSIKEAQETCAGDPVSGECVAAWDEVEELSAAASHARDKKKADGSDPLEEYCKDNPETNECRTYDN", "partner": "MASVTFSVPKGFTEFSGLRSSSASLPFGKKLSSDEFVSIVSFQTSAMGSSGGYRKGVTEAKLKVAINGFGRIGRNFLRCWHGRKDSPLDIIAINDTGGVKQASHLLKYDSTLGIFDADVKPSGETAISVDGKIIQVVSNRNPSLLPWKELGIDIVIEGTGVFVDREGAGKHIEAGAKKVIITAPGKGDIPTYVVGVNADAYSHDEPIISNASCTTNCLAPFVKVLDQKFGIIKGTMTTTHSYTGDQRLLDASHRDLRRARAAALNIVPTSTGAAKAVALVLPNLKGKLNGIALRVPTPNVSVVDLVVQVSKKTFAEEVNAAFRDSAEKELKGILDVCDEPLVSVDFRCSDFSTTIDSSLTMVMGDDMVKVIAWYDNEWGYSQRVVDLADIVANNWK"}},
  "data": [
    {"variants_of": "B1", "settings": "with GAPA1, P25856", "values": [
      {"variant": "MATIATGLNIATQRVFVTSENRPVCLAGPVHLNNSWNLGSRTTNRMMKLQPIKAAPEGGISDVVEKSIKEAQETCAGDPVSGECVAAWDEVEELSAAASHARDKKKADGSDPLEEYCKDNPETNESRTYDN", "note": "[C126S]", "effect of a mutation on the interaction": "disrupting interaction"}
    ]}
  ]
}
